The target of one test is T1, IL-4 receptor (Homo sapiens, UniProt P24394).
T1 sequence (P24394 26-825): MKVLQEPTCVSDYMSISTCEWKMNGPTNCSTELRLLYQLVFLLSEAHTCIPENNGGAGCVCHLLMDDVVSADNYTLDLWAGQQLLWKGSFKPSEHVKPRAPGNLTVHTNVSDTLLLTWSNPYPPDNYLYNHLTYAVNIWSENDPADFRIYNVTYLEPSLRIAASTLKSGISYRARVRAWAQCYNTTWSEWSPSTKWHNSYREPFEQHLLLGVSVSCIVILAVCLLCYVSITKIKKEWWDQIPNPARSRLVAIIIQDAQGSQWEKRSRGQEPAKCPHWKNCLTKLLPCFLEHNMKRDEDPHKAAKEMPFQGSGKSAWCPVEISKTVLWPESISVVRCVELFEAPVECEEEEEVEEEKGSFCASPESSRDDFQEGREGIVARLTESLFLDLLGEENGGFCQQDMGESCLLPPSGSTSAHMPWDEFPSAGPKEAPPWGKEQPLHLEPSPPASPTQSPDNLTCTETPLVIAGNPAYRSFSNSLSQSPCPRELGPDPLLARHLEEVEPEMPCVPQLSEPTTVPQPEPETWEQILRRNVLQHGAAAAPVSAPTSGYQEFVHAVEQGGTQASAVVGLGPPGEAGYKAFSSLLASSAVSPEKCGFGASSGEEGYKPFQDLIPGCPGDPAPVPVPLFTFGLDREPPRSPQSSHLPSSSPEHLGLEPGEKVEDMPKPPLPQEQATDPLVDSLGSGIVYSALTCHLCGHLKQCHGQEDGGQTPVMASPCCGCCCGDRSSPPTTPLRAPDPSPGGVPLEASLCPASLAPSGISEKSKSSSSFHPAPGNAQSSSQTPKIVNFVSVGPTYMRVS
The experiment in a line: Surface plasmon resonance (SPR) analysis of binding affinity to immobilised IL-4 receptor. The note with it: Table 4. On the procedure: (§1) Here, the right channel was used as a reference channel. In the two channels, left channel and right channel, 1M ethanolamine (pH 8.5) solution was allowed to flow over the unreacted surface for 7 min for blocking, so as to reduce non-specific adsorption thereof. All test procedures were conducted at a temperature of 25° C. and the flow rate was 25 ul/min.
The buffer (20 mM Tris-HCl pH 8.0, 150 mM NaCl, 180 mM Histidine, 62.5 ug/ml BSA, 0.005% Tween 20) was used through filtering and degassing. The wild type ferritin and the AP1-inserted ferritins were allowed to flow over at concentrations of 0.65 nM, 1.3 nM, 2.6 nM, 5.2 nM, 10.4 nM, 20.8 nM, and 41.6 nM for 3 min, and the same buffer was allowed to flow over for 3 min. For regeneration, 2 M NaCl was allowed to flow over for […] to wash the proteins remaining without dissociation. Specific binding values, obtained by subtracting the right channel value from the left channel value, in the concentration ranging from 0.65 nM to 10.4 nM, were plotted on a graph.
AP1 peptide was allowed to flow over at concentrations of 3.125 uM, 6.25 uM, 12.5 uM, 25 uM, and 50 uM for 3 min, and the same buffer was allowed to flow over for 3 min. For regeneration, 2 M NaCl was allowed to flow over for 1 min to wash the proteins remaining without dissociation. Specific binding values, obtained by subtracting the right channel value from the left channel value, in the respective concentrations, were plotted on a graph (see FIG. 8).
In the binding graph, the RU value expressing the amount of bound protein was measured by subtracting the blank (buffer) value and reference channel (right channel) value, using Scrubber software. The KD value was obtained from the binding RU (Req) values measured at the respective concentrations using KaleidaGraph software.
The experiment was conducted like in example <5-1>, and RU values shown for concentrations ranging from 0.65 nM to 41.6 nM were plotted on a graph using GraphPad prism 4 program.
For comparison of binding affinity between FTL-AP1 and FTL-AP1_AP1, surface plasmon resonance analysis was conducted. Analysis was conducted by the same method as in Example <5-1>. The binding of FTL-AP1 was analyzed at concentrations of 0.26 nM, 1.041 nM, 2.083 nM, and 4.166 nM, respectively, and the binding of FTL-AP1_AP1 was analyzed at concentrations of 0.520 nM, 1.041 nM, 2.083 nM, and 4.166 nM, respectively.
For orientation: In SPR one partner is held on a chip, and binding of the other changes the refractive index at the surface.

The target of another test is integrin alphavbeta3 (Homo sapiens, UniProt P05106+P06756). The experiment in a line: SPR analysis of binding affinity to integrin alphavbeta3. The note with it: FIG. 16. On the procedure: as §1, with “Then, 40 mM N-(3-dimethylaminopropyl)-N′-ethylcarbodiimide hydrochloride (EDC)/10 mM N-hydroxy-succinimide (NHS) were allowed to flow over each channel (left, right) of carboxymethyl dextran chip for 7 min for surface activation, and then 200 ul of the prepared alphavbeta3 protein was allowed to flow over the left channel for 7 min for immobilization. Here,” for “Here,”
Sequence of integrin alphavbeta3 (P06756 31-1048): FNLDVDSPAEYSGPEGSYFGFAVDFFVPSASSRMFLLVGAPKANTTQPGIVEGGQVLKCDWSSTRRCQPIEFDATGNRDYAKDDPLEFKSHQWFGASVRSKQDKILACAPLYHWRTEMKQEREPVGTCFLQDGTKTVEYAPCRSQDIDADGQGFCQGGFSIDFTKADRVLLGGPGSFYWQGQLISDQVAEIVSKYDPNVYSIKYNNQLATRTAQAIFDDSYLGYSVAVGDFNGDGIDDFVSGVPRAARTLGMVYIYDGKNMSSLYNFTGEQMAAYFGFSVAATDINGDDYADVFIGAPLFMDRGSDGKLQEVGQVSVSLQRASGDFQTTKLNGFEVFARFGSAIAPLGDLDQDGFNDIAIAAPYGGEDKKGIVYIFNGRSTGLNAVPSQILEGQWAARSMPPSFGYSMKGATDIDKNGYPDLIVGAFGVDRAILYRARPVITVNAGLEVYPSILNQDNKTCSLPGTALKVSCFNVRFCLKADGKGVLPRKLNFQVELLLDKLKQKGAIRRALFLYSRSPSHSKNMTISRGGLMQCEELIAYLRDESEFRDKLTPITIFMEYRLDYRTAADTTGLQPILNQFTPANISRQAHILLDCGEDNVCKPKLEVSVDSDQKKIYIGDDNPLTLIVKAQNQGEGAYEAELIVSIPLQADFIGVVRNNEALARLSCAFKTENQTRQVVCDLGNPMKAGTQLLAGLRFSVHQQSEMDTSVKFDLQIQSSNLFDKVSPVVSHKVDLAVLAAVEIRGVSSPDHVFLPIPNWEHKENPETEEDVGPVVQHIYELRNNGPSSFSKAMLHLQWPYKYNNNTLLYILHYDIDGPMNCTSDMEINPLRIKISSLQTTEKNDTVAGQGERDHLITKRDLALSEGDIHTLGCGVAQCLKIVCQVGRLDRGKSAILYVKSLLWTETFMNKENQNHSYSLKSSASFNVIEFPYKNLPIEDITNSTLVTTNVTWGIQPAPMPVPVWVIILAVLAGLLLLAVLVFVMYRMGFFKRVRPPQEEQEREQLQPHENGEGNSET
Sequence of integrin alphavbeta3 (P05106 27-788): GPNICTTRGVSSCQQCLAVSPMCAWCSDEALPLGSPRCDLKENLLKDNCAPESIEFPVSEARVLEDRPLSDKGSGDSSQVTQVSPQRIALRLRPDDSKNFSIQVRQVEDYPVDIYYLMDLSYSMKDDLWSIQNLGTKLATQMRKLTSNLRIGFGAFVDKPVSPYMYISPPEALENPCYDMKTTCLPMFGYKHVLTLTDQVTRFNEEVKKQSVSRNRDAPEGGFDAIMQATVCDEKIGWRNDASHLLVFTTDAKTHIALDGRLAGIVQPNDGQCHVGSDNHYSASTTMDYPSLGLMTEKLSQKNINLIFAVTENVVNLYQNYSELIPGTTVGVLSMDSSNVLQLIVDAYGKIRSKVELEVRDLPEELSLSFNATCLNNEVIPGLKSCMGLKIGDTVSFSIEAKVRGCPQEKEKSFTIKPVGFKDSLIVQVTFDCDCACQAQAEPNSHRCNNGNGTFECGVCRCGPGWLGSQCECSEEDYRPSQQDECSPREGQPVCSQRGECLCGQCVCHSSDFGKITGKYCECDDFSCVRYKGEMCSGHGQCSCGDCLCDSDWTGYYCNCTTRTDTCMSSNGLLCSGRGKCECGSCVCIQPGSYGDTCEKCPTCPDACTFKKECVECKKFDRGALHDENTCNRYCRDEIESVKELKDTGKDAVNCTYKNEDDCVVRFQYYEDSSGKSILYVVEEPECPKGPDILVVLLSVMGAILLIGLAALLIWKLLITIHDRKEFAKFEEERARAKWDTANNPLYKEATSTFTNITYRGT
The buffer (10 mM Hepes pH 7.4, 150 mM NaCl, 180 mM Histidine, 1 mM MgCl2, 0.005% Tween 20) was used through filtering and degassing. The wild type ferritin and the RGD-inserted ferritins were allowed to flow over at concentrations of 0.65 nM, 1.3 nM, 2.6 nM, 5.2 nM, 10.4 nM, 20.8 nM, and 41.6 nM, respectively, for 3 min, and the same buffer was allowed to flow over for 3 min. For regeneration, 2 M NaCl was allowed to flow over for 1 min to wash the proteins remaining without dissociation. […]
In the binding graph, the RU value expressing the amount of bound protein was measured by subtracting the blank (buffer) value and reference channel (right channel) value, using Scrubber software.

For test [1], the system named is A549 cells overexpressing IL-4 receptor. The experiment in a line: Cell binding test using flow cytometry (FACS). In kind it is cell-based, human. The note with it: at 400 nM and 200 nM, FIG. 13. On the procedure:
First, A549 cells were grown to about 80% confluence in a 100 mm-diameter plate. The plated cells were washed twice with PBS, and detached from the plate using Trypsin/EDTA. Then, 2×10^5/100 μl cells were suspended in PBS containing 1% bovine serum albumin (BSA), and incubated at 4° C. for 30 min. […] The above blocking procedure was performed on one group, and was not performed on the other group, and the following experiment was performed on both groups. After washing twice with PBS, the ferritin without AP1 insertion and the AP1-inserted ferritin were diluted to 400 nM in buffer (20 mM Tris, 150 mM NaCl, 180 mM Histidine), and then allowed to bind at 4° C. for 20 min. After washing twice with PBS, the ferritin light chain antibody (D-18, sc-14420) was diluted to 1:400 in PBS buffer containing 1% BSA, and incubated in ice for 30 min. After washing twice with PBS, Alexa Fluor 488 donkey anti-goat IgG (H+L) antibody (invitrogen, USA) was diluted to 1:200 in PBS containing 1% BSA, and incubated in ice for 30 min. After washing twice with PBS, the cells were suspended in 500 ul PBS, and analyzed with FACS.
First, A549 cells were grown to about 80% confluence in a 100 φ plate. The plated cells were washed twice with PBS, and detached from the plate using Trypsin/EDTA. […] After washing twice with PBS, the cells were suspended in 500 ul PBS, and then analyzed with FACS.
A general note: Flow cytometry measures light scatter and fluorescence of single cells or particles in a stream.

B1: GG-AP1S: human ferritin light chain with AP1S (RKRLDRN) inserted in GG cassette of the fourth loop; named FTL-AP1 in Examples 6-9 (protein)
chain: MSSQIRQNYSTDVEAAVNSLVNLYLQASYTYLSLGFYFDRDDVALEGVSHFFRELAEEKREGYERLLKMQNQRGGRALFQDIKKPAEDEWGKTPDAMKAAMALEKKLNQALLDLHALGSARTDPHLCDFLETHFLDEEVKLIKKMGDHLTNLHRGSRKRLDRNGGPEAGLGEYLFERLTLKHD
modifications: left off: small tags and cut ends
As for B1, in the test with IL-4 receptor, the Koff is recorded as 1.25 ± 0.4 × 10^−3 S^−1 and the Kon was 1.22 ± 0.64 × 10^6 M^−1S^−1.

B2: FTL-RGD-AP1: human ferritin light chain with inserted RGD and AP1 peptides (AP1 exchanged with RGD relative to FTL-AP1_RGD) (protein)
chain: MRGDGGGSGMSSQIRQNYSTDVEAAVNSLVNLYLQASYTYLSLGFYFDRDDVALEGVSHFFRELAEEKREGYERLLKMQNQRGGRALFQDIKKPAEDEWGKTPDAMKAAMALEKKLNQALLDLHALGSARTDPHLCDFLETHFLDEEVKLIKKMGDHLTNLHRGSRKRLDRNGGPEAGLGEYLFERLTLKHD
modifications: left off: small tags and cut ends
For B2, the “binding to integrin alphavbeta3” value with integrin alphavbeta3 is on record as “bound to integrin alphavbeta3 in a concentration-dependent manner”.

B3: FTL-GRGDSP-AP1: ferritin having inserted GRGDSP and AP1 peptides (protein)
chain: MGRGDSPGGGSGMSSQIRQNYSTDVEAAVNSLVNLYLQASYTYLSLGFYFDRDDVALEGVSHFFRELAEEKREGYERLLKMQNQRGGRALFQDIKKPAEDEWGKTPDAMKAAMALEKKLNQALLDLHALGSARTDPHLCDFLETHFLDEEVKLIKKMGDHLTNLHRGSRKRLDRNGGPEAGLGEYLFERLTLKHD
modifications: left off: small tags and cut ends
notes: ferritin having inserted GRGDSP and AP1 peptides
For the molecule B3, the “binding to integrin alphavbeta3” value with integrin alphavbeta3 is “bound to integrin alphavbeta3 in a concentration-dependent manner”.

B4: FTL-AP1_AP1: fusion polypeptide in which AP1S was additionally fused to N-terminal of FTL_GG-AP1S (protein)
chain: MRKRLDRNGGGSGMSSQIRQNYSTDVEAAVNSLVNLYLQASYTYLSLGFYFDRDDVALEGVSHFFRELAEEKREGYERLLKMQNQRGGRALFQDIKKPAEDEWGKTPDAMKAAMALEKKLNQALLDLHALGSARTDPHLCDFLETHFLDEEVKLIKKMGDHLTNLHRGSRKRLDRNGGPEAGLGEYLFERLTLKHD
modifications: left off: small tags and cut ends
On to B4, for which, in the test with IL-4 receptor, the Koff is reported as 3.8 × 10^−5 S^−1 and the Kon is given as 8.26 × 10^5 M^−1S^−1. Besides, in test [1], the “amount bound to IL-4 receptor compared with FTL-AP1 (FACS)” value is “larger amount than FTL-AP1”.
